43 variants from the Human Domainome abundance scans (Beltran et al. 2025) can be followed below.

± gives the uncertainty stated by the source.

B1: DnaJ homolog subfamily C member 5, residues 16 to 77; numbered along this chain, Q9H3Z4 (parent)
chain: LYHVLGLDKNATSDDIKKSYRKLALKYHPDKNPDNPEAADKFKEINNAHAILTDATKRNIYD

In this data set the parent is B1. In words: abundance fitness (aPCA) (normalised: wild type 0, dead -1); higher = more abundant; growth selection in yeast, the domain comes from the species named. The settings on record: Homo sapiens.
Consider LYHVLGLDKNATSCDIKKSYRKLALKYHPDKNPDNPEAADKFKEINNAHAILTDATKRNIYD [D14C], for which the abundance fitness was -0.549 ± 0.11.

On to LYHVLGLDKNATSFDIKKSYRKLALKYHPDKNPDNPEAADKFKEINNAHAILTDATKRNIYD [D14F], for which the abundance fitness is -0.848 ± 0.3.

With LYHVLGLDKNATSTDIKKSYRKLALKYHPDKNPDNPEAADKFKEINNAHAILTDATKRNIYD [D14T], the abundance fitness is -0.346 ± 0.099.

Consider LYHVLGLDKNATSHDIKKSYRKLALKYHPDKNPDNPEAADKFKEINNAHAILTDATKRNIYD [D14H], for which the abundance fitness is -0.394 ± 0.26.

Take LYHVLGLDKNATSNDIKKSYRKLALKYHPDKNPDNPEAADKFKEINNAHAILTDATKRNIYD [D14N]: the abundance fitness is -0.151 ± 0.15.

For the variant LYHVLGLDKNATSWDIKKSYRKLALKYHPDKNPDNPEAADKFKEINNAHAILTDATKRNIYD [D14W], the abundance fitness is -0.357 ± 0.075.

As to LYHVLGLDKNATSSDIKKSYRKLALKYHPDKNPDNPEAADKFKEINNAHAILTDATKRNIYD [D14S], the abundance fitness was -0.242 ± 0.07.

As for LYHVLGLDKNATSVDIKKSYRKLALKYHPDKNPDNPEAADKFKEINNAHAILTDATKRNIYD [D14V], the abundance fitness was -0.341 ± 0.074.

LYHVLGLDKNATSEDIKKSYRKLALKYHPDKNPDNPEAADKFKEINNAHAILTDATKRNIYD [D14E]: the abundance fitness was -0.048 ± 0.099.

Take LYHVLGLDKNATSADIKKSYRKLALKYHPDKNPDNPEAADKFKEINNAHAILTDATKRNIYD [D14A]: the abundance fitness is -0.166 ± 0.094.

With LYHVLGLDKNATSLDIKKSYRKLALKYHPDKNPDNPEAADKFKEINNAHAILTDATKRNIYD [D14L], the abundance fitness was -0.238 ± 0.073.

For the variant LYHVLGLDKNATSIDIKKSYRKLALKYHPDKNPDNPEAADKFKEINNAHAILTDATKRNIYD [D14I], the abundance fitness is -0.105 ± 0.14.

As to LYHVLGLDKNATSYDIKKSYRKLALKYHPDKNPDNPEAADKFKEINNAHAILTDATKRNIYD [D14Y], the abundance fitness was -0.431 ± 0.16.

Regarding LYHVLGLDKNATSPDIKKSYRKLALKYHPDKNPDNPEAADKFKEINNAHAILTDATKRNIYD [D14P], the abundance fitness is -0.348 ± 0.11.

Regarding LYHVLGLDKNATSQDIKKSYRKLALKYHPDKNPDNPEAADKFKEINNAHAILTDATKRNIYD [D14Q], the abundance fitness was -0.394 ± 0.1.

For the variant LYHVLGLDKNATSRDIKKSYRKLALKYHPDKNPDNPEAADKFKEINNAHAILTDATKRNIYD [D14R], the abundance fitness is -0.359 ± 0.056.

As to LYHVLGLDKNATSGDIKKSYRKLALKYHPDKNPDNPEAADKFKEINNAHAILTDATKRNIYD [D14G], the abundance fitness was -0.401 ± 0.065.

As to LYHVLGLDKNATSKDIKKSYRKLALKYHPDKNPDNPEAADKFKEINNAHAILTDATKRNIYD [D14K], the abundance fitness was -0.209 ± 0.12.

LYHVLGLDKNATSDEIKKSYRKLALKYHPDKNPDNPEAADKFKEINNAHAILTDATKRNIYD [D15E]: the abundance fitness is -0.067 ± 0.12.

With LYHVLGLDKNATSDAIKKSYRKLALKYHPDKNPDNPEAADKFKEINNAHAILTDATKRNIYD [D15A], the abundance fitness was -0.042 ± 0.069.

Turning to LYHVLGLDKNATSDMIKKSYRKLALKYHPDKNPDNPEAADKFKEINNAHAILTDATKRNIYD [D15M], the abundance fitness was -0.359 ± 0.14.

LYHVLGLDKNATSDKIKKSYRKLALKYHPDKNPDNPEAADKFKEINNAHAILTDATKRNIYD [D15K]: the abundance fitness was -0.17 ± 0.099.

For the variant LYHVLGLDKNATSDGIKKSYRKLALKYHPDKNPDNPEAADKFKEINNAHAILTDATKRNIYD [D15G], the abundance fitness was -0.433 ± 0.098.

Regarding LYHVLGLDKNATSDIIKKSYRKLALKYHPDKNPDNPEAADKFKEINNAHAILTDATKRNIYD [D15I], the abundance fitness is -0.328 ± 0.14.

Take LYHVLGLDKNATSDFIKKSYRKLALKYHPDKNPDNPEAADKFKEINNAHAILTDATKRNIYD [D15F]: the abundance fitness was -0.689 ± 0.23.

In the case of LYHVLGLDKNATSDCIKKSYRKLALKYHPDKNPDNPEAADKFKEINNAHAILTDATKRNIYD [D15C], the abundance fitness is -0.24 ± 0.2.

Consider LYHVLGLDKNATSDLIKKSYRKLALKYHPDKNPDNPEAADKFKEINNAHAILTDATKRNIYD [D15L], for which the abundance fitness is -0.412 ± 0.07.

Take LYHVLGLDKNATSDHIKKSYRKLALKYHPDKNPDNPEAADKFKEINNAHAILTDATKRNIYD [D15H]: the abundance fitness was -0.679 ± 0.25.

In the case of LYHVLGLDKNATNDDIKKSYRKLALKYHPDKNPDNPEAADKFKEINNAHAILTDATKRNIYD [S13N], the abundance fitness came to 0.002 ± 0.23.

Take LYHVLGLDKNATLDDIKKSYRKLALKYHPDKNPDNPEAADKFKEINNAHAILTDATKRNIYD [S13L]: the abundance fitness was -0.04 ± 0.073.

Take LYHVLGLDKNATRDDIKKSYRKLALKYHPDKNPDNPEAADKFKEINNAHAILTDATKRNIYD [S13R]: the abundance fitness is -0.354 ± 0.072.

As to LYHVLGLDKNATYDDIKKSYRKLALKYHPDKNPDNPEAADKFKEINNAHAILTDATKRNIYD [S13Y], the abundance fitness is -0.188 ± 0.11.

For the variant LYHVLGLDKNATEDDIKKSYRKLALKYHPDKNPDNPEAADKFKEINNAHAILTDATKRNIYD [S13E], the abundance fitness is -0.023 ± 0.087.

Turning to LYHVLGLDKNATTDDIKKSYRKLALKYHPDKNPDNPEAADKFKEINNAHAILTDATKRNIYD [S13T], the abundance fitness stood at 0.055 ± 0.12.

Regarding LYHVLGLDKNATGDDIKKSYRKLALKYHPDKNPDNPEAADKFKEINNAHAILTDATKRNIYD [S13G], the abundance fitness is -0.376 ± 0.077.

Regarding LYHVLGLDKNATMDDIKKSYRKLALKYHPDKNPDNPEAADKFKEINNAHAILTDATKRNIYD [S13M], the abundance fitness is 0.04 ± 0.12.

In the case of LYHVLGLDKNATIDDIKKSYRKLALKYHPDKNPDNPEAADKFKEINNAHAILTDATKRNIYD [S13I], the abundance fitness was found to be 0.046 ± 0.18.

In the case of LYHVLGLDKNATPDDIKKSYRKLALKYHPDKNPDNPEAADKFKEINNAHAILTDATKRNIYD [S13P], the abundance fitness was -0.272 ± 0.089.

With LYHVLGLDKNATVDDIKKSYRKLALKYHPDKNPDNPEAADKFKEINNAHAILTDATKRNIYD [S13V], the abundance fitness was -0.162 ± 0.07.

Take LYHVLGLDKNATDDDIKKSYRKLALKYHPDKNPDNPEAADKFKEINNAHAILTDATKRNIYD [S13D]: the abundance fitness was found to be 0.068 ± 0.11.

Consider LYHVLGLDKNATWDDIKKSYRKLALKYHPDKNPDNPEAADKFKEINNAHAILTDATKRNIYD [S13W], for which the abundance fitness is -0.336 ± 0.098.

Turning to LYHVLGLDKNATHDDIKKSYRKLALKYHPDKNPDNPEAADKFKEINNAHAILTDATKRNIYD [S13H], the abundance fitness is -0.496 ± 0.15.

Take LYHVLGLDKNATFDDIKKSYRKLALKYHPDKNPDNPEAADKFKEINNAHAILTDATKRNIYD [S13F]: the abundance fitness is -0.267 ± 0.091.
